One experiment concerns the target T1, Toc64 (recombinant) (Pisum sativum).
T1 chain: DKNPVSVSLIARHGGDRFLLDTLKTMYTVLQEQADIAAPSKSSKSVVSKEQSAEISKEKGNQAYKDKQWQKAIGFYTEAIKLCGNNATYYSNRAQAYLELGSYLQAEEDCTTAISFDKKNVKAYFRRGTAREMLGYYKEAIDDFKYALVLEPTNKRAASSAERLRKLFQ
The experiment in a line: from ref 7.

The target in experiment [1] is chaperone receptors within native chloroplast membranes (dynamic TIRE). The experiment in a line: native chloroplast membranes.
A further experiment concerns the target T2, OEP61 (recombinant) (Arabidopsis thaliana).
T2 chain: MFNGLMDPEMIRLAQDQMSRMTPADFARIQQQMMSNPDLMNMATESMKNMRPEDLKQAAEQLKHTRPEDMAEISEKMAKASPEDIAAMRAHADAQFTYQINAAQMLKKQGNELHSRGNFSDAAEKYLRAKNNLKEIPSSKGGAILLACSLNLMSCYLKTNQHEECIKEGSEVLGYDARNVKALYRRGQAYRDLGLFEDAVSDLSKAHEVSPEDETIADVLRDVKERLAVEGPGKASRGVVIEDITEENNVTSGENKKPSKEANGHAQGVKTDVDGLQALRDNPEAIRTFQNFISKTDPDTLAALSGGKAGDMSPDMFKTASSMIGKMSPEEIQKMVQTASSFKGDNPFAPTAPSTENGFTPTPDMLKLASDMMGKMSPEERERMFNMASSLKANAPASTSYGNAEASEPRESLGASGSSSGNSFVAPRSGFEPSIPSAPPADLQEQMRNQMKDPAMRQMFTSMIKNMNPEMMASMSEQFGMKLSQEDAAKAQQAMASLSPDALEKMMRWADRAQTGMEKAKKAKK
The experiment in a line: from ref 7.

B1: Hsp90-2 (At5g56030), full length (natural protein)
chain: not shown
One may read the Kd as the equilibrium constant for the complex coming apart. Lower therefore signals tighter binding. With B1, in the experiment with Toc64 (recombinant), the Ka came to 7.6e+08 M⁻¹. The molecule further displayed a Kd in experiment [1] of 114 nM.

B2: Hsp70-1 (At5g02500), full length (natural protein)
chain: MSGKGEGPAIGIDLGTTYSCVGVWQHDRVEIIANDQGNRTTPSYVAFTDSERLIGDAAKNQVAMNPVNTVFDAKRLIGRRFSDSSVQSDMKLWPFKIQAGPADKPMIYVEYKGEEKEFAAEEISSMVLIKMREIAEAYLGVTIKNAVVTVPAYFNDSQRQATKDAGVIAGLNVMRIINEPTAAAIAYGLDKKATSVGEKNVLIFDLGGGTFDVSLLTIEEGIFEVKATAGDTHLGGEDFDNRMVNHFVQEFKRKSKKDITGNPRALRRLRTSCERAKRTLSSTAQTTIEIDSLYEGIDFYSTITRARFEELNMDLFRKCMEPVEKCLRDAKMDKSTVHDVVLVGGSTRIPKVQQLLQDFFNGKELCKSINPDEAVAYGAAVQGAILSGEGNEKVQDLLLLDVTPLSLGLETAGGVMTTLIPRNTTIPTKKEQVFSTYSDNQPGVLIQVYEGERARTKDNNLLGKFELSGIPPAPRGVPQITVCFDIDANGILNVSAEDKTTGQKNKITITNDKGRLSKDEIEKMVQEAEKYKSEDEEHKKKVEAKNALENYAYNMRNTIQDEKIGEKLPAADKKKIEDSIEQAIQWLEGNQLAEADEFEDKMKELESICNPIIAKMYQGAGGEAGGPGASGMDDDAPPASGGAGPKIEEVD
B2: in the experiment with OEP61 (recombinant), the Ka was 1.03e+09 M⁻¹. For the same molecule, in experiment [1], the Kd stood at 109 nM.
